This is an account of results in US11731099B2, “Method for controlling encapsulation efficiency and burst release of water soluble molecules from nanoparticles and microparticles produced by inverse flash nanoprecipitation” (The Trustees of Princeton University, priority 2018, dated 2023).

This series is described as follows: Burst release of lysozyme from coated nanoparticles in release media. In kind it is physicochemical. The note with it: PBS with 0.2 wt % Tween-20 versus PBS, 37° C.

Regarding lysozyme, the “increase of burst release in presence of surfactant” value came to 25%.
